Results: the supplement of paper PMC9233669
Fewer inactive variants are shown than the library holds.

Assays:
biotinyl-Trp-oxazolone = experiment: self-aminoacylation, catalytic enhancement (BWO) (fold over background); higher = more active; k-Seq, kA / k0A0; sequences stand for … in GGGAAUGGAUCCACAUCUACGAAUUC…UUCACUGCAGACUUGACGAAGCUG
Method in brief: (§1)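 Mutagenized RNA pools with a 21-nt variable region (0.43 μM) reacted with each biotinyl-aminoacyl-oxazolone at 2–1250 μM. Reactions ran in 50 μL HEPES/NaCl/KCl/MgCl2/CaCl2 buffer with 5% acetonitrile, pH 6.9–7.0, for 90 minutes at room temperature. Streptavidin-captured RNA was quantified by triplicate qPCR and Illumina sequencing, and per-sequence fraction reacted was fit to a pseudo-first-order model with 1000 bootstraps. Catalytic enhancement is median kA divided by the uncatalyzed rate, the low-activity peak of a bimodal Gaussian fit.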

biotinyl-Leu-oxazolone = experiment: self-aminoacylation, catalytic enhancement (BLO) (fold over background); higher = more active; k-Seq, kA / k0A0; sequences stand for … in GGGAAUGGAUCCACAUCUACGAAUUC…UUCACUGCAGACUUGACGAAGCUG
Method in brief: as §1

biotinyl-Met-oxazolone = experiment: self-aminoacylation, catalytic enhancement (BMO) (fold over background); higher = more active; k-Seq, kA / k0A0; sequences stand for … in GGGAAUGGAUCCACAUCUACGAAUUC…UUCACUGCAGACUUGACGAAGCUG
Method in brief: as §1

biotinyl-Ile-oxazolone = experiment: self-aminoacylation, catalytic enhancement (BIO) (fold over background); higher = more active; k-Seq, kA / k0A0; sequences stand for … in GGGAAUGGAUCCACAUCUACGAAUUC…UUCACUGCAGACUUGACGAAGCUG
Method in brief: as §1

biotinyl-Phe-oxazolone = experiment: self-aminoacylation, catalytic enhancement (BFO) (fold over background); higher = more active; k-Seq, kA / k0A0; sequences stand for … in GGGAAUGGAUCCACAUCUACGAAUUC…UUCACUGCAGACUUGACGAAGCUG
Method in brief: as §1

biotinyl-Val-oxazolone = experiment: self-aminoacylation, catalytic enhancement (BVO) (fold over background); higher = more active; k-Seq, kA / k0A0; sequences stand for … in GGGAAUGGAUCCACAUCUACGAAUUC…UUCACUGCAGACUUGACGAAGCUG
Method in brief: as §1

| Sequence | self-aminoacylation (biotinyl-Trp-oxazolone) | self-aminoacylation (biotinyl-Leu-oxazolone) | self-aminoacylation (biotinyl-Met-oxazolone) | self-aminoacylation (biotinyl-Ile-oxazolone) | self-aminoacylation (biotinyl-Phe-oxazolone) | self-aminoacylation (biotinyl-Val-oxazolone) |
| --- | --- | --- | --- | --- | --- | --- |
| AAGAUAGCUAAUAGUCGCAAG [Fam3.1 aminoacylation ribozyme variant] | 1.34 | 1.82 | 1.57 | 1.63 | 2.4 | 1.34 |
| AAGAUUGCAAAUAGUCGCAAG [Fam3.1 aminoacylation ribozyme variant] | 2.48 | 1.58 | 1.27 | 1.43 | 1.38 | 1.29 |
| AAGAUUGCCAAUAGUCGCAAG [Fam3.1 aminoacylation ribozyme variant] | 1.88 | 1.63 | 1.8 | 1.51 | 1.69 | 1.81 |
| AAGAUUGCUAAAAGUCGCAAG [Fam3.1 aminoacylation ribozyme variant] | 1.56 | 1.76 | 1.87 | 1.66 | 3.21 | 1.61 |
| AAGAUUGCUAAUAGUCGAAAG [Fam3.1 aminoacylation ribozyme variant] | 1.34 | 0.966 | 1.03 | 1.28 | 2.96 | 0.945 |
| AAGAUUGCUAAUAGUCGCAAG [Fam3.1 aminoacylation ribozyme variant] | 2.15 | 1.33 | 1.32 | 1.53 | 4.83 | 1.31 |
| AAGAUUGCUAAUAGUCGCAUG [Fam3.1 aminoacylation ribozyme variant] | 1.46 | 1.91 | 1.45 | 1.68 | 1.36 | 1.39 |
| AAGAUUGCUAAUAGUCGGAAG [Fam3.1 aminoacylation ribozyme variant] | 1.54 | 0.837 | 0.909 | 1.4 | 1.84 | 1.22 |
| AAGCUAGCUAAUAGUCGCAAG [Fam3.1 aminoacylation ribozyme variant] | 2.47 | 2.26 | 1.36 | 2.2 | 4.5 | 1.62 |
| AAGCUCGCUAAUAGUCGCAAG [Fam3.1 aminoacylation ribozyme variant] | 2.2 | 2.49 | 1.75 | 2.09 | 3.66 | 1.95 |
| AAGCUUGCUAAUAGUCGAAAG [Fam3.1 aminoacylation ribozyme variant] | 1.88 | 1.16 | 1.73 | 1.58 | 3.53 | 1.35 |
| AAGCUUGCUAAUAGUCGCAAC [Fam3.1 aminoacylation ribozyme variant] | 1.32 | 1.44 | 1.28 | 1.86 | 2.11 | 1.24 |
| AAGCUUGCUAAUAGUCGCAAG [Fam3.1 aminoacylation ribozyme variant] | 2.02 | 1.67 | 1.69 | 1.85 | 3.96 | 1.59 |
| AAGCUUGCUAAUCGUCGCAAG [Fam3.1 aminoacylation ribozyme variant] | 2.85 | 1.65 | 1.55 | 1.85 | 2.14 | 1.45 |
| AAGGUUGCUAAUAGUCGCUAG [Fam3.1 aminoacylation ribozyme variant] | 1.27 | 1.19 | 1.03 | 1.3 | 1.54 | 1.03 |
| AAGGUUGCUAAUAGUCGGAAG [Fam3.1 aminoacylation ribozyme variant] | 3.38 | 1.23 | 1.08 | 1.51 | 4.52 | 0.973 |
| AAGGUUGCUAAUUGUCGCAAG [Fam3.1 aminoacylation ribozyme variant] | 2.85 | 1.14 | 1.36 | 1.56 | 1.4 | 1.41 |
| AAGGUUGCUAGUAGUCGCAAG [Fam3.1 aminoacylation ribozyme variant] | 1.3 | 0.971 | 1.3 | 1.18 | 1.77 | 1.07 |
| AAGGUUUCUAAUAGUCGCAAG [Fam3.1 aminoacylation ribozyme variant] | 1.6 | 1.05 | 1.04 | 1.64 | 2.65 | 1.53 |
| AAGUAUGCCAAUAGUCGCAAG [Fam3.1 aminoacylation ribozyme variant] | 1.43 | 1.53 | 1.77 | 2.21 | 2.34 | 1.46 |
| AAGUAUGCUAAUAGCCGCAAG [Fam3.1 aminoacylation ribozyme variant] | 2.58 | 1.16 | 1.06 | 1.49 | 5.73 | 1.05 |
| AAGUAUGCUAAUAGUCUCAAG [Fam3.1 aminoacylation ribozyme variant] | 2.69 | 1.6 | 1.55 | 1.43 | 8.35 | 1.31 |
| AAGUAUGCUAUUAGUCGCAAG [Fam3.1 aminoacylation ribozyme variant] | 1.76 | 1.68 | 1.38 | 1.66 | 1.49 | 1.59 |
| AAGUAUUCUAAUAGUCGCAAG [Fam3.1 aminoacylation ribozyme variant] | 1.83 | 1.71 | 1.58 | 1.61 | 7.07 | 1.6 |
| AAGUCCGCUAAUAGUCGCAAG [Fam3.1 aminoacylation ribozyme variant] | 10.7 | 2.02 | 2.99 | 2.43 | 46.3 | 2.09 |
| AAGUCUGCUAAAAGUCGCAAG [Fam3.1 aminoacylation ribozyme variant] | 6.66 | 1.72 | 1.92 | 1.35 | 23.1 | 1.23 |

| Sequence | self-aminoacylation (biotinyl-Trp-oxazolone) | self-aminoacylation (biotinyl-Leu-oxazolone) | self-aminoacylation (biotinyl-Met-oxazolone) | self-aminoacylation (biotinyl-Ile-oxazolone) | self-aminoacylation (biotinyl-Phe-oxazolone) | self-aminoacylation (biotinyl-Val-oxazolone) |
| --- | --- | --- | --- | --- | --- | --- |
| AAGUCUGCUAAUAGUCCCAAG [Fam3.1 aminoacylation ribozyme variant] | 2.43 | 1.15 | 1.38 | 0.928 | 7.42 | 0.893 |
| AAGUCUGCUAAUAGUCGCAGG [Fam3.1 aminoacylation ribozyme variant] | 1.97 | 2.25 | 2.07 | 1.7 | 5.31 | 1.44 |
| AAGUCUGCUAAUAGUCGGAAG [Fam3.1 aminoacylation ribozyme variant] | 7.78 | 1.87 | 2.09 | 1.25 | 18.4 | 1.61 |
| AAGUCUGCUAAUAGUGGCAAG [Fam3.1 aminoacylation ribozyme variant] | 1.17 | 0.866 | 0.98 | 0.678 | 3.1 | 0.765 |
| AAGUCUGCUAGUAGUCGCAAG [Fam3.1 aminoacylation ribozyme variant] | 0.88 | 1.44 | 0.975 | 0.775 | 1.06 | 1.06 |
| AAGUCUGCUUAUAGUCGCAAG [Fam3.1 aminoacylation ribozyme variant] | 0.87 | 1.25 | 1.18 | 0.895 | 1.42 | 0.822 |
| AAGUCUGUUAAUAGUCGCAAG [Fam3.1 aminoacylation ribozyme variant] | 0.936 | 1.01 | 1.03 | 1.14 | 1.04 | 1.03 |
| AAGUGUGCUAAUAAUCGCAAG [Fam3.1 aminoacylation ribozyme variant] | 1.09 | 0.989 | 1.25 | 1.35 | 1.51 | 1.29 |
| AAGUGUGCUAAUAGUAGCAAG [Fam3.1 aminoacylation ribozyme variant] | 1.6 | 1.21 | 1.02 | 1.27 | 1.65 | 1.33 |
| AAGUGUGCUAAUGGUCGCAAG [Fam3.1 aminoacylation ribozyme variant] | 1.21 | 0.792 | 0.926 | 0.864 | 2.15 | 1.06 |
| AAGUGUGCUAAUUGUCGCAAG [Fam3.1 aminoacylation ribozyme variant] | 2.65 | 1.51 | 1.45 | 1.5 | 1.56 | 1.49 |
| AAGUGUGCUAUUAGUCGCAAG [Fam3.1 aminoacylation ribozyme variant] | 0.997 | 0.947 | 1.36 | 1.29 | 2.19 | 1.43 |
| AAGUGUGCUGAUAGUCGCAAG [Fam3.1 aminoacylation ribozyme variant] | 1.38 | 1.42 | 1.74 | 1.53 | 2.85 | 1.24 |
| AAGUUAGCUAAUGGUCGCAAG [Fam3.1 aminoacylation ribozyme variant] | 1.55 | 1.17 | 1.3 | 1.22 | 1.77 | 1.08 |
| AAGUUAGCUAUUAGUCGCAAG [Fam3.1 aminoacylation ribozyme variant] | 1.74 | 1.82 | 1.34 | 1.99 | 2.06 | 1.6 |
| AAGUUCGCUAAUAGUCACAAG [Fam3.1 aminoacylation ribozyme variant] | 1.64 | 1.6 | 1.56 | 1.59 | 3.01 | 1.25 |
| AAGUUCGCUAAUAGUCGCAUG [Fam3.1 aminoacylation ribozyme variant] | 3.05 | 2.88 | 2.27 | 2.16 | 8.49 | 2.37 |
| AAGUUGGCUAAUAAUCGCAAG [Fam3.1 aminoacylation ribozyme variant] | 2.04 | 1.34 | 1.29 | 1.72 | 2.15 | 1.67 |
| AAGUUGGCUAAUAGUCGCAAC [Fam3.1 aminoacylation ribozyme variant] | 1.93 | 1.42 | 1.31 | 1.75 | 2.17 | 1.4 |
| AAGUUGGCUAAUAGUCGCAAU [Fam3.1 aminoacylation ribozyme variant] | 2.93 | 1.71 | 1.32 | 2.15 | 2.72 | 1.7 |
| AAGUUGGCUAAUAGUCGCACG [Fam3.1 aminoacylation ribozyme variant] | 2.11 | 1.81 | 1.61 | 1.35 | 2.62 | 1.63 |
| AAGUUGGCUAAUAGUCGGAAG [Fam3.1 aminoacylation ribozyme variant] | 1.15 | 1.1 | 1.22 | 1.47 | 2.31 | 1.48 |
| AAGUUGGCUAAUAGUUGCAAG [Fam3.1 aminoacylation ribozyme variant] | 1.92 | 1.09 | 1.53 | 1.39 | 1.86 | 1.29 |
| AAGUUGGCUAAUAUUCGCAAG [Fam3.1 aminoacylation ribozyme variant] | 3.02 | 2.11 | 1.85 | 2.32 | 2.07 | 2.09 |
| AAGUUUACUAAGAGUCGCAAG [Fam3.1 aminoacylation ribozyme variant] | 1.69 | 1.36 | 1.37 | 1.47 | 1.93 | 1.36 |
